Assay results taken from paper PMC5292662, “PKU mutation p.G46S prevents the stereospecific binding of L‐phenylalanine to the dimer of human phenylalanine hydroxylase regulatory domain” (FEBS Open Bio, 2017).
Numbering of substitutions follows the chain as printed. Numbers in names are those of the source.

B1: wt‐MBP‐(pep)Xa‐hPAH‐RD^1–120 fusion protein (domain or fragment, human, UniProt P00439 1-120, looked up)
chain: MSTAVLENPGLGRKLSDFGQETSYIEDNCNQNGAISLIFSLKEEVGALAKVLRLFEENDVNLTHIESRPSRLKKDEYEFFTHLDKRSLPALTNIIKILRHDIGATVHELSRDKKKDTVPW
notes: N-terminal regulatory domain (RD) of human phenylalanine hydroxylase (hPAH), residues 1-120 (stop signal introduced in codon 121), SwissProt P00439; From pMAL‐hPAH‐RD^1–120 (pMAL-c2 vector); a factor Xa cleavage peptide (pep)Xa lies between MBP and the RD; Isolated by SEC as a dimeric and a monomeric fraction; also called MBP‐hPAH‐RD^1–120; wt‐MBP‐hPAH‐RD; source: E. coli, purified (amylose …)
B2: MBP‐hPAH‐G46S‐RD^1–120 fusion protein (domain or fragment, human, UniProt P00439 1-120, looked up)
chain: B1 chain with G46S
notes: From pMAL‐hPAH‐G46S‐RD^1–120; a factor Xa cleavage peptide lies between MBP and the RD; G46S is a mutation found in patients with phenylketonuria; also called hPAH‐G46S‐RD^1–120 dimer fusion protein; source: E. coli, purified (amylose resin, SEC); not shown: MBP, N-terminal, kept

Molecular target: the molecule itself
Assay: SEC; HiLoad Superdex 200 HR column (1.6 cm × 60 cm), 20 mM Na‐Hepes, 0.2 M NaCl, pH 7.0, 0.38 mL·min^−1, 4 °C; masses estimated from standard markers; dimer to monomers

Protein	stoichiometry N
B1	2
B2	2
